Assay [1] concerns CD4 T cell clone BDC-5.2.9. It counts as cell-based, NOD mouse. To be noted: 24 h.
Assay [2] concerns the target islet amyloid polypeptide (IAPP), peptide CS19 peptide on I-Ag7 (mouse). Description: IFN-γ ELISA.
In assay [3] the target is islet amyloid polypeptide (IAPP), peptide KG38 peptide on I-Ag7 (mouse). Briefly: IFN-γ ELISA.
Assay [4] deals with islet amyloid polypeptide (IAPP), peptide KN14 peptide on I-Ag7 (mouse). Briefly: IFN-γ ELISA. (An ELISA detects its analyte on a solid surface through an enzyme-linked reagent.)
Assay [5] has as its target islet amyloid polypeptide (IAPP), peptide KQ10 peptide on I-Ag7 (mouse). Description: IFN-γ ELISA.
For assay [6], the target named is islet amyloid polypeptide (IAPP), peptide KS20 peptide on I-Ag7 (mouse). Description: IFN-γ ELISA.
The target in assay [7] is islet amyloid polypeptide (IAPP), peptide KV17 peptide on I-Ag7 (mouse). Description: IFN-γ ELISA.
Assay [8] concerns the target islet amyloid polypeptide (IAPP), peptide NS18 peptide on I-Ag7 (mouse). Briefly: IFN-γ ELISA.
Assay [9] deals with islet amyloid polypeptide (IAPP), peptide TS17 peptide on I-Ag7 (mouse). Description: IFN-γ ELISA.
The mark [10] stands for this setting: T cell clone BDC-5.2.9 (2 × 10^4) with peritoneal exudate cells (2.5 × 10^4) and peptide, IFN-γ in culture supernatants of duplicate wells by ELISA.

Like-named read-outs stand apart in the source and are kept apart here. Bounds are passed on as bounds.

One may read the EC50 as the concentration needed to bring the measured effect to its halfway point. Lower therefore signals greater potency. In assay [1], `CC(C)C[C@H](NC(=O)[C@H](CC(N)=O)NC(=O)[C@H](CC(N)=O)NC(=O)[C@H](CO)NC(=O)[C@H](CO)NC(=O)[C@H](CCCNC(=N)N)NC(=O)[C@@H](NC(=O)[C@H](CC(C)C)NC(=O)[C@H](Cc1ccccc1)NC(=O)[C@H](CC(N)=O)NC(=O)[C@H](C)NC(=O)[C@H](CC(C)C)NC(=O)[C@H](CCCNC(=N)N)NC(=O)[C@H](CCC(N)=O)NC(=O)[C@@H](NC(=O)[C@H](C)NC(=O)[C@@H]1CSSC[C@H](NC(=O)[C@@H](N)CCCCN)C(=O)N[C@@H](CC(N)=O)C(=O)N[C@@H]([C@@H](C)O)C(=O)N[C@@H](C)C(=O)N[C@@H]([C@@H](C)O)C(=O)N1)[C@@H](C)O)C(C)C)C(=O)NCC(=O)N1CCC[C@H]1C(=O)N[C@H](C(=O)N[C@@H](CC(C)C)C(=O)N1CCC[C@H]1C(=O)N1CCC[C@H]1C(=O)N[C@H](C(=O)N[C@@H](CC(N)=O)C(=O)N[C@H](C(=O)NCC(=O)N[C@@H](CO)C(=O)N[C@@H](CC(N)=O)C(=O)N[C@H](C(=O)N[C@@H](Cc1ccc(O)cc1)C(=O)NCC(=O)O)[C@@H](C)O)C(C)C)[C@@H](C)O)C(C)C` [KG38] displayed an EC50 of 0.2 nM.

On to BDC-5.2.9, for which the EC50 of peptide in assay [2] was 5 nM; in assay [3], 0.2 nM; in [4] it was more than 100000 nM; in assay [5], more than 100000 nM; in [6], 0.2 nM; in assay [7], 10 nM. The EC50 of peptide in assay [8] and in assay [9] was more than 100000 nM each time.

The compound KCNTATCATQ [KQ10] came in with an EC50 in assay [1] (setting [10]) of more than 100000 nM.

With KCNTATCATQRLAN [KN14], the EC50 in assay [1] (setting [10]) is more than 100000 nM.

In [1] (setting [10]), NTATCATQRLANFLVRSS [NS18] showed an EC50 of more than 100000 nM.

TATCATQRLANFLVRSS [TS17] returned an EC50 in assay [1] (setting [10]) of more than 100000 nM.

The values above are taken from article PMC3815676 (Journal of immunology (Baltimore, Md. : 1950), 2013).
